Source: IntAct's records for PubMed 19229292

Assays:
dlg3_rat Dlg3 = dlg3_rat Dlg3 (UniProt Q62936)
dlg1_rat Dlg1 = dlg1_rat Dlg1 (UniProt Q62696)
dlg2_rat Dlg2 = dlg2_rat Dlg2 (UniProt Q63622)
Sequence of dlg2_rat Dlg2 (Q63622 whole entry, looked up): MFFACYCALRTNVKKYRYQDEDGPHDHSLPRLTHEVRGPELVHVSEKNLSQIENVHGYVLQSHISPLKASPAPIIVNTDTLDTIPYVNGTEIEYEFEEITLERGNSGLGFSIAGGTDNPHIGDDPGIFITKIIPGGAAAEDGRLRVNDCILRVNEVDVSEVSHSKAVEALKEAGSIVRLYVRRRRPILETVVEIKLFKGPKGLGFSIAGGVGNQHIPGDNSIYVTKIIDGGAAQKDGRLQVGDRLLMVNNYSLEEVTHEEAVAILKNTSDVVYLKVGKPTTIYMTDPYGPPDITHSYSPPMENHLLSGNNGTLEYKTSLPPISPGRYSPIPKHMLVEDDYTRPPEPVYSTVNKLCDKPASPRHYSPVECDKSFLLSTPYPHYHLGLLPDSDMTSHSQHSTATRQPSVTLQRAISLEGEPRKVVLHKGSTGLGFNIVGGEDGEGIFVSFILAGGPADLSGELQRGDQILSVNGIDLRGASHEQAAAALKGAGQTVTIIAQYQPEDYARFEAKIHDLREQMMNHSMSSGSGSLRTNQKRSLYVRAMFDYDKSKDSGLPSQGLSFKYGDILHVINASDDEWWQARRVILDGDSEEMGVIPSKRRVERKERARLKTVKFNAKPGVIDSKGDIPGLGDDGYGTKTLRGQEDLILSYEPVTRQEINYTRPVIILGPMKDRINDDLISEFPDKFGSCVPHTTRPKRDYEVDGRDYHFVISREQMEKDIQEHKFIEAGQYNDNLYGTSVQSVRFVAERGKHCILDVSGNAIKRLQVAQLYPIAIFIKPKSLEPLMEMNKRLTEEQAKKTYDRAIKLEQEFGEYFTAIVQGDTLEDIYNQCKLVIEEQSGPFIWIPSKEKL

Sequence of dlg3_rat Dlg3 (Q62936 whole entry): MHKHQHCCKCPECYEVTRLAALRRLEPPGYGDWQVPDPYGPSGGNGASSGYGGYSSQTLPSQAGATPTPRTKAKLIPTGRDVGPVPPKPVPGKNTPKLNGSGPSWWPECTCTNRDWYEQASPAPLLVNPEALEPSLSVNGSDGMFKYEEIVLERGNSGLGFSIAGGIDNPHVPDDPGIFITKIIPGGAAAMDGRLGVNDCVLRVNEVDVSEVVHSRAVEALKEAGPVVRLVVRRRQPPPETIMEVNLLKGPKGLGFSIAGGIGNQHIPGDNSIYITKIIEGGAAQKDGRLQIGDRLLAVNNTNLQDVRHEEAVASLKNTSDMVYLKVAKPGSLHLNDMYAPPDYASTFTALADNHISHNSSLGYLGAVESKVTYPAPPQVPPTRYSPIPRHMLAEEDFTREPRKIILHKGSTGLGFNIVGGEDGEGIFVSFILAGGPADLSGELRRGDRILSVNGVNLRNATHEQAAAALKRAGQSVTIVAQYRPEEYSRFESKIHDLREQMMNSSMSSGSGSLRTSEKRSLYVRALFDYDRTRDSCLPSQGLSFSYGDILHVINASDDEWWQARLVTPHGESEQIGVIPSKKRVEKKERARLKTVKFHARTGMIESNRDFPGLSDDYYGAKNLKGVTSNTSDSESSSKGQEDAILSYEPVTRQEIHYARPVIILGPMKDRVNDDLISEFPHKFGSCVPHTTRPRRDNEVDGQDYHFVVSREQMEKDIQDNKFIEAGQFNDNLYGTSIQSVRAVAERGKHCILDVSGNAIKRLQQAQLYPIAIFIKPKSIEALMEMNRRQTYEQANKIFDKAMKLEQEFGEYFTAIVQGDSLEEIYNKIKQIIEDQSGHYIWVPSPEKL
Sequence of dlg1_rat Dlg1 (Q62696 whole entry): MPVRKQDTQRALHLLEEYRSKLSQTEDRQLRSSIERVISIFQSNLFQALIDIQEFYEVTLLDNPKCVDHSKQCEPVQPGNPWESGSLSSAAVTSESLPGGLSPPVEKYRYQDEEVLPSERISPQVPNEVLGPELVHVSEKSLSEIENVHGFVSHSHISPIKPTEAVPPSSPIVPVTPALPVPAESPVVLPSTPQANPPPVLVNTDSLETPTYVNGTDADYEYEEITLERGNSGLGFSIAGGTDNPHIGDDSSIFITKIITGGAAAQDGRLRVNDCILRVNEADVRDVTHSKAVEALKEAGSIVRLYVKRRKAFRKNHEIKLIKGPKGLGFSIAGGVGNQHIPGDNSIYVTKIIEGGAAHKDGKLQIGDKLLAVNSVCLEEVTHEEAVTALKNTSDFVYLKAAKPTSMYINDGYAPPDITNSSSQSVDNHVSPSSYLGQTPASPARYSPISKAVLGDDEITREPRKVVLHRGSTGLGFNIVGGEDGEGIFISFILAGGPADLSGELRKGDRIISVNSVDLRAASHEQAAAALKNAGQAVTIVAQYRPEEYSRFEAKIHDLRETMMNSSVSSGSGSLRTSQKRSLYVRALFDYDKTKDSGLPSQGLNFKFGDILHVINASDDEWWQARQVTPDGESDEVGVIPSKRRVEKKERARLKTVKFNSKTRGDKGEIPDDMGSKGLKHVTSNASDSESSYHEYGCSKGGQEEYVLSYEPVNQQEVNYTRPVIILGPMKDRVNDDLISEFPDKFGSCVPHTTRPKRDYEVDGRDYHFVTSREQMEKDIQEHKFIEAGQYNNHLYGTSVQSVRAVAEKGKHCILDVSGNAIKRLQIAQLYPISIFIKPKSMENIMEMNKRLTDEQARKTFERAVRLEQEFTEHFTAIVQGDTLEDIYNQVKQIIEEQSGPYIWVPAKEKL

effect of a mutation on the interaction (dlg3_rat Dlg3): disrupting interaction | effect of a mutation on the interaction (dlg1_rat Dlg1): disrupting interaction | effect of a mutation on the interaction (dlg2_rat Dlg2): disrupting interaction
Substance: Diacylglycerol kinase zeta (Rattus norvegicus (Rat)), O08560 V929A
